Source: US20230111102A1 (published 2023)

Target: HEWL (lysozyme, derived from egg albumen, FUJIFILM Wako Pure Chemical Corporation) (UniProt P00698 19-147)
Assay: SPR (Biacore)

Chain of HEWL (lysozyme, derived from egg albumen, FUJIFILM Wako Pure Chemical Corporation) (P00698 19-147): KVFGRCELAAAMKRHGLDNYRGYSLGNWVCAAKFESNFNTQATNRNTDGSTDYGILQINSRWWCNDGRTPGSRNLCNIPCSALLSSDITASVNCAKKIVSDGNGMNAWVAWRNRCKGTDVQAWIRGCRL

B1: 1ZVH (VHH, SEQ ID NO: 38) produced by Bacillus subtilis Dpr9ΔsigF (VHH)
VHH: QVQLVESGGGLVQPGGSLRLSCAASGFTFSNDAMTWVRQAPGKALEWVSSITLLGGGIPYYSDTVKGRFTISRDNTKNMLYLQMNSLKPEDTAVYYCAKGFKSDYPRGQGTQVTVSS
  Kd: 18 nM
